From paper PMC11774777, “A PDZ-kinase allosteric relay mediates Par complex regulator exchange” (The Journal of Biological Chemistry, 2024)
Where two headings read alike, the source gives them in different places.

Columns and labels:
[1] = target: T1, GST-fused Par-3 PDZ2 with its associated basic region (BR-PDZ2) (UniProt O96782 1-1464)
T1 chain: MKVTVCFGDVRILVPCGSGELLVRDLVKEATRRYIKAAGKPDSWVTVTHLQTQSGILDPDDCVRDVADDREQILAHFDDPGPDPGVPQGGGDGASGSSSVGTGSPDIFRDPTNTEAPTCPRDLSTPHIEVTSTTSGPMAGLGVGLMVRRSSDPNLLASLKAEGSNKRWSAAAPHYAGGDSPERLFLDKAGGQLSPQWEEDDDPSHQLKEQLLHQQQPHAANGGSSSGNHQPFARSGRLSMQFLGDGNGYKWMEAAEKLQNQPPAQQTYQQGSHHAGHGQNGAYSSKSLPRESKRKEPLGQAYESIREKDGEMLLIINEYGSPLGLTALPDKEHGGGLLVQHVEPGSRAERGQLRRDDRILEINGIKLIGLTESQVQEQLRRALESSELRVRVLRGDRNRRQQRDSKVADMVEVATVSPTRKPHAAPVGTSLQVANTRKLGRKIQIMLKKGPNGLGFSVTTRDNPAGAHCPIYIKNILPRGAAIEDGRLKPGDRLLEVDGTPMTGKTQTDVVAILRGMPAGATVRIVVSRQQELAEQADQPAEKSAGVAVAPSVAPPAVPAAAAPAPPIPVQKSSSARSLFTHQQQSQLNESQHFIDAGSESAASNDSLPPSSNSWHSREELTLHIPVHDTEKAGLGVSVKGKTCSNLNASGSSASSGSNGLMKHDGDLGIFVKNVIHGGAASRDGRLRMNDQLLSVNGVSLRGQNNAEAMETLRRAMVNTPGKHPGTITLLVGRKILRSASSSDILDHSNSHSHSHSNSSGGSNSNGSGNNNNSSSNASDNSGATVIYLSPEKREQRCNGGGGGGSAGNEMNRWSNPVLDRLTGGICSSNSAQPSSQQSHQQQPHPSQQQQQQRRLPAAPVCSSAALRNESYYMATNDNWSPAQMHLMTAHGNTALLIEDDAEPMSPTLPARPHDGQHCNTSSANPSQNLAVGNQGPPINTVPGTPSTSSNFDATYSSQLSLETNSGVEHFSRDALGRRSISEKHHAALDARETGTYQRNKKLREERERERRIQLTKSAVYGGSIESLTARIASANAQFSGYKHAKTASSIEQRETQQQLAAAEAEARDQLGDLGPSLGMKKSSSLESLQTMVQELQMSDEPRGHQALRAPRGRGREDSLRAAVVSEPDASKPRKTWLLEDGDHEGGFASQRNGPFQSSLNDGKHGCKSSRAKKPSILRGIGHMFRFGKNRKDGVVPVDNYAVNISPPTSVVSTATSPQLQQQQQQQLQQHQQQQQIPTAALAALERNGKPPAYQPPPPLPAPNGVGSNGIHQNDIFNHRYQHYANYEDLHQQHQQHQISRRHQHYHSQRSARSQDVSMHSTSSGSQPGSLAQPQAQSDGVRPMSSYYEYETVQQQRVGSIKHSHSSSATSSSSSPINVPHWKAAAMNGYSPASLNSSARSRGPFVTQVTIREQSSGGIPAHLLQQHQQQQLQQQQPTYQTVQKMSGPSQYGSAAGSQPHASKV

[2] = target: T1, GST-fused Par-3 PDZ2 with its …; test: with Par-6 CRIB-PDZ added in trans
[3] = target: T2, GST-fused Par-6 CRIB-PDZ (UniProt O97111 130-255); test: pull-down; GST-Par-6 CRIB-PDZ on glutathione resin, Par complex ΔCRIB-PDZ with soluble Par-3 BR-PDZ2 added; same buffer, 60 min at RT; Coomassie, normalized band intensity of aPKC; details: both partners purified
T2 construct: Par-6, CRIB motif and PDZ domain; also called GST Par-6 CRIB-PDZ
T2 sequence (looked up): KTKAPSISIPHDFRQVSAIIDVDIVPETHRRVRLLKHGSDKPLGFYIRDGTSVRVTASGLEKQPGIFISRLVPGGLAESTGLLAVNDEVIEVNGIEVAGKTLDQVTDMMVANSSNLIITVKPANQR

Kd [1]: 161 µM
Kd [2]: 11.3 µM
fold increase of binding with Par-3 PDZ2 against without Par-3 [3]: > 20 fold
B1: Par complex ΔCRIB-PDZ (full-length aPKC plus the Par-6 PB1 domain) (complex)
chain 1: MQKMPSQILNDGSSVSLNSASMNMANTPNSITVKTAYNGQIIITTINKNISYEELCYEIRNICRFPLDQPFTIKWVDEENDPCTISTKMELDEAIRLYEMNFDSQLVIHVFPNVPQAPGLSCDGEDRSIYRRGARRWRKLYRVNGHIFQAKRFNRRAFCAYCQDRIWGLGRQGFKCIQCKLLVHKKCHKLVQKHCTDQPEPLVKERAEESSDPIPVPLPPLPYEAMSGGAEACETHDHAHIVAPPPPEDPLEPGTQRQYSLNDFELIRVIGRGSYAKVLMVELRRTRRIYAMKVIKKALVTDDEDIDWVQTEKHVFETASNHPFLVGLHSCFQTPSRLFFVIEFVRGGDLMYHMQRQRRLPEEHARFYAAEISLALNFLHEKGIIYRDLKLDNVLLDHEGHIKLTDYGMCKEGIRPGDTTSTFCGTPNYIAPEILRGEDYGFSVDWWALGVLLYEMLAGRSPFDLAGASENPDQNTEDYLFQVILEKTIRIPRSLSVRAASVLKGFLNKNPADRLGCHRESAFMDIVSHPFFKNMDWELLERKQVTPPFKPRLDSDRDLANFPPEFTGEAVQLTPDDDHVIDNIDQSEFEGFEYVNPLLMSLEDCV
chain 2: MSKNKINTTSATAASDTNLIEVKSKFDAEFRRWSFKRNEAEQSFDKFASLIEQLHKLTNIQFLILYIDPRDNDLLPINNDDNFGRALKTARPLLRVIVQRKDDLNEYSGFGTMKPRNLIGSILMGHTPV
notes: atypical PKC (aPKC), full length; Par-6, PB1 domain; The complex was His-purified; also called full-length aPKC with Par-6 PB1; source: HEK 293F, co-transfected, purified (cobalt resin, anion exchange)
